Substrate in data set [1]: O=C1O[C@H]([C@@H](O)CO)C(O)=C1O
Briefly: Prolyl 4-hydroxylase activity assay (decarboxylation of 2-oxo[1-14C]glutarate), type 1 enzyme. The class given is biochemical, human. The conditions noted are these: other: α12β2, recombinant enzyme from insect cells, 0.1% Triton X-100 extract; pH 7.8.

Substrate in data set [2]: O=C1O[C@H]([C@@H](O)CO)C(O)=C1O
Briefly: Prolyl 4-hydroxylase activity assay (decarboxylation of 2-oxo[1-14C]glutarate), type 2 enzyme. The data set is classed as biochemical. The conditions noted are these: other: α22β2 (mouse α2, human PDI/β), recombinant enzyme from insect cells; pH 7.8.

B1: human type 1 prolyl 4-hydroxylase tetramer (α12β2) (Homo sapiens) (protein)
chain: HPGFFTSIGQMTDLIHTEKDLVTSLKDYIKAEEDKLEQIKKWAEKLDRLTSTATKDPEGFVGHPVNAFKLMKRLNTEWSELENLVLKDMSDGFISNLTIQRQYFPNDEDQVGAAKALLRLQDTYNLDTDTISKGNLPGVKHKSFLTAEDCFELGKVAYTEADYYHTELWMEQALRQLDEGEISTIDKVSVLDYLSYAVYQQGDLDKALLLTKKLLELDPEHQRANGNLKYFEYIMAKEKDVNKSASDDQSDQKTTPKKKGVAVDYLPERQKYEMLCRGEGIKMTPRRQKKLFCRYHDGNRNPKFILAPAKQEDEWDKPRIIRFHDIISDAEIEIVKDLAKPRLRRATISNPITGDLETVHYRISKSAWLSGYENPVVSRINMRIQDLTGLDVSTAEELQVANYGVGGQYEPHFDFARKDEPDAFKELGTGNRIATWLFYMSDVSAGGATVFPEVGASVWPKKGTAVFWYNLFASGEGDYSTRHAACPVLVGNKWVSNKWLHERGQEFRRPCTLSELE
notes: made in house; host or cells: Spodoptera frugiperda Sf9 insect cells (baculovirus co-infection); 0.1% Triton X-100 extract
As to B1, the Km in data set [1] was 330 µM.

B2: mouse/human type 2 prolyl 4-hydroxylase tetramer (α22β2) (Mus musculus) (protein)
chain: WVQAEFFTSIGHMTDLIYAEKDLVQSLKEYILVEEAKLAKIKSWASKMEALTSRSAADPEGYLAHPVNAYKLVKRLNTDWPALGDLVLQDASAGFVANLSVQRQFFPTDEDESGAARALMRLQDTYKLDPDTISRGELPGTKYQAMLSVDDCFGLGRSAYNEGDYYHTVLWMEQVLKQLDAGEEATVTKSLVLDYLSYAVFQLGDLHRAVELTRRLLSLDPSHERAGGNLRYFERLLEEERGKSLSNQTDAGLATQENLYERPTDYLPERDVYESLCRGEGVKLTPRRQKKLFCRYHHGNRVPQLLIAPFKEEDEWDSPHIVRYYDVMSDEEIERIKEIAKPKLARATVRDPKTGVLTVASYRVSKSSWLEEDDDPVVARVNRRMQHITGLTVKTAELLQVANYGMGGQYEPHFDFSRSDDEDAFKRLGTGNRVATFLNYMSDVEAGGATVFPDLGAAIWPKKGTAVFWYNLLRSGEGDYRTRHAACPVLVGCKWVSNKWFHERGQEFLRPCGTTEVD
notes: the cDNA clones, considered in combination, cover the whole coding region of the mouse α2 subunit; made in house; host or cells: Spodoptera frugiperda Sf9 insect cells (baculovirus pVL1392 construct, co-infection with PDI/β virus); 0.1% Triton X-100 extract
As to B2, in data set [2], the Michaelis-Menten constant (Km) stood at 340 µM.

Broadly, the Km is the substrate concentration at which the rate is half of its maximum.

For the origin of these results see patent publication US20020177203A1, “Alpha2 subunit of prolyl 4-hydroxylase” (priority 1996, published 2002).
